Consider one substance from publication doi:10.1101/116368.

For this assay, the target named is STARD1^S195E mutant (human StAR domain, residues 66-285) (human) (UniProt P49675). Put plainly: SEC. A general note: Size exclusion chromatography separates by hydrodynamic size, large species first.

A value given as a limit tells only on which side of the number the result lay.

The substance “STARD1^S195E mutant (human StAR domain, residues 66-285) (from UniProt P49675 66-285) (domain or fragment)” yielded a fraction of dimers of less than 3%.
